Columns and labels:
HaCat cell extract preys = experiment: PDZ-AP-MS, biotinylated MBP-PDZ baits; assay type: binding, human
Method in brief: (§1)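 Biotinylated His6-AviTag-MBP-PDZ baits, or MBP alone, saturated streptavidin resin and were then biotin-blocked. Each was incubated with 1 mg cell lysate for 2 h at 4 °C, washed, and eluted in 8 M urea. Eluates were digested with Lys-C/trypsin, run by nanoLC-MS/MS on an Orbitrap Elite (top20 CID) and searched against human SwissProt.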

HeLa cell extract preys = experiment: PDZ-AP-MS, biotinylated MBP-PDZ baits; assay type: binding, human; conditions: PDZ-AP-MS fold change of the PBM-protein prey
Method in brief: as §1

[1] = test system: Jurkat cell extract preys; experiment: PDZ-AP-MS, biotinylated MBP-PDZ baits; assay type: binding, human; conditions: for Difference log2: enrichment of prey
Method in brief: as §1

HEK293T cells = experiment: Label-free MS proteome of stable cell lines expressing HPV16 E6 or E6ΔPBM; assay type: cell-based, human; conditions: protein level; for Difference log2 E6/Ctrl / Ratio E6/Ctrl: E6 cell line vs control; for Difference log2 dPBM/E6 / Ratio dPBM/E6: dPBM cell line vs E6 cell line; for Difference log2 dPBM/Ctrl / Ratio dPBM/Ctrl: dPBM cell line vs control
Procedure: HEK293T and HeLa cells were authenticated and found 100% identity to ATCC cat. CRL-3216 and ATCC cat. CCL-2, respectively. Jurkat and HaCat cell lines were not authenticated (original source: ECACC and Deutsches Krebsforschungszentrum DKFZ, respectively). HeLa cells were grown in DMEM (1 g/L glucose, Gibco) medium completed with 5% FCS and 40 μg/mL gentamicin, diluted every 3rd/4th day 1/10. HaCat cells were grown in DMEM (1 g/L glucose, Gibco) medium completed with 10% FCS and 40 μg/mL gentamicin, diluted every 3rd/4th day 1/4. Jurkat cells were grown in RPMI (Gibco) medium completed with 10% FCS and 40 μg/mL gentamicin, diluted every 3rd/4th day 1/12. All cells were kept at 37 °C and 5% CO2. For proteomics analyses cells were seeded on T-175 flasks. After they reached confluency, adherent cells were washed with PBS once and collected by scraping with ice-cold lysis buffer (Hepes-KOH pH 7.5 50 mM, NaCl 150 mM, Triton X-100 1%, complete EDTA-free protease inhibitor cocktail 1×, EDTA 2 mM, TCEP 5 mM, glycerol 10%). Jurkat cells were collected by 1000 g × centrifugation, washed once with PBS, then collected by 1000 g × 5 min centrifugation again and lysed in ice-cold lysis buffer. Lysates were sonicated 4 × 20 s with 1 s long pulses on ice, then incubated rotating at 4 °C for 30 min. Lysates were centrifuged at 12,000 rpm 4 °C for 20 min and supernatant was kept for further analysis. Concentration determination was carried out by standard Bradford method (Bio-Rad Protein Assay Dye Reagent #5000006) using BSA (MP BIomedicals #160069) as control on a Bio-Rad SmartSpec 3000 spectrophotometer instrument.
The samples were precipitated with TCA 20% overnight at 4 °C and centrifuged at 14,000 rpm for 10 min at 4 °C. The protein pellets were washed twice with 1 mL cold acetone and air dried. The protein extracts were solubilized in urea 8 M, reduced with 5 mM TCEP for 30 min, and alkylated with 10 mM iodoacetamide for 30 min in the dark. Double digestion was performed at 37 °C with 500 ng endoproteinase Lys-C for 4 h, followed by fourfold dilution and an overnight digestion with 500 ng trypsin. Peptide mixtures were then desalted on C18 spin-column and dried on Speed-Vacuum.
Samples were analyzed using an Ultimate 3000 nano-RSLC (Thermo Scientific, San Jose California) coupled in line with a LTQ-Orbitrap ELITE mass spectrometer via a nano-electrospray ionization source (Thermo Scientific, San Jose California). Peptide mixtures were injected in 0.1% TFA on a C18 Acclaim PepMap100 trap-column (75 µm ID × 2 cm, 3 µm, 100 Å, Thermo Fisher Scientific) for 3 min at 5 µL/min with 2% ACN, 0.1% FA in H2O and then separated on a C18 Accucore nano-column (75 µm ID × 50 cm, 2.6 µm, 150 Å, Thermo Fisher Scientific) at 220 nl/min and 38 °C with a 90 min linear gradient from 5% to 30% buffer B (A: 0.1% FA in H2O/B: 99% ACN, 0.1% FA in H2O), regeneration at 5% B. The mass spectrometer was operated in positive ionization mode, in data-dependent mode with survey scans from m/z 350–1500 acquired in the Orbitrap at a resolution of 120,000 at m/z 400. The 20 most intense peaks from survey scans were selected for further fragmentation in the Linear Ion Trap with an isolation window of 2.0 Da and were fragmented by CID with normalized collision energy of 35%. (TOP20CID method) Unassigned and single charged states were excluded from fragmentation. The Ion Target Value for the survey scans (in the Orbitrap) and the MS2 mode (in the Linear Ion Trap) were set to 1E6 and 5E3 respectively and the maximum injection time was set to 100 ms for both scan modes. Dynamic exclusion was set to 20 s after one repeat count with mass width at ±10 ppm.
Proteins were identified by database searching using SequestHT (Thermo Fisher Scientific) with Proteome Discoverer 2.4 software (PD2.4, Thermo Fisher Scientific) on human FASTA database downloaded from SwissProt (reviewed, release 2020_11_27, 20304 entries, https://www.uniprot.org/). […]

[2] = PDZ-AP-MS fold change of the PBM-protein prey, bait MBP-PDZ DLG1_1
[3] = PDZ-AP-MS fold change of the PBM-protein prey, bait MBP-PDZ DLG1_2
[4] = PDZ-AP-MS fold change of the PBM-protein prey, bait MBP-PDZ SCRIB_1
[5] = PDZ-AP-MS fold change of the PBM-protein prey, bait MBP-PDZ SCRIB_2
[6] = PDZ-AP-MS fold change of the PBM-protein prey, bait MBP-PDZ SNX27
[7] = PDZ-AP-MS fold change of the PBM-protein prey, bait MBP-PDZ TX1BP3
[8] = bait SCRIB_1 PDZ, fold change of prey

B1: SRSF3 (protein, UniProt P84103 1-164, looked up)
Serine/arginine-rich splicing …: MHRDSCPLDCKVYVGNLGNNGNKTELERAFGYYGPLRSVWVARNPPGFAFVEFEDPRDAADAVRELDGRTLCGCRVRVELSNGEKRSRNRGPPPSWGRRPRDDYRRRSPPPRRRSPRRRSFSRSRSRSLSRDRRRERSLSRERNHKPSRSFSRSRSRSRSNERK
HaCat cell extract preys; [2]
  Fold changes, HaCat, DLG1_1: 0.6471
HaCat cell extract preys; [3]
  Fold changes, HaCat, DLG1_2: 0.7027
HaCat cell extract preys; [4]
  Fold changes, HaCat, SCRIB_1: 0.4366
HaCat cell extract preys; [5]
  Fold changes, HaCat, SCRIB_2: 0.378
HaCat cell extract preys; [6]
  Fold changes, HaCat, SNX27: 0.5499
HaCat cell extract preys; [7]
  Fold changes, HaCat, TX1BP3: 0.6457
HeLa cell extract preys; bait MBP-PDZ DLG1_1
  Fold changes, HeLa, DLG1_1: 8.89
HeLa cell extract preys; bait MBP-PDZ DLG1_2
  Fold changes, HeLa, DLG1_2: 0.7503
HeLa cell extract preys; bait MBP-PDZ SCRIB_1
  Fold changes, HeLa, SCRIB_1: 8.2529
HeLa cell extract preys; bait MBP-PDZ SCRIB_2
  Fold changes, HeLa, SCRIB_2: 6.813
HeLa cell extract preys; bait MBP-PDZ SNX27
  Fold changes, HeLa, SNX27: 0.891
HeLa cell extract preys; bait MBP-PDZ TX1BP3
  Fold changes, HeLa, TX1BP3: 0.5408
[1]; [2]
  Fold changes, Jurkat, DLG1_1: 0.942
[1]; [3]
  Fold changes, Jurkat, DLG1_2: 1.581
[1]; [4]
  Fold changes, Jurkat, SCRIB_1: 0.6991
[1]; [5]
  Fold changes, Jurkat, SCRIB_2: 0.9858
[1]; [6]
  Fold changes, Jurkat, SNX27: 1.323
[1]; [7]
  Fold changes, Jurkat, TX1BP3: 0.7942

B2: ARHGEF6 (protein, UniProt Q15052 1-776, looked up)
Rho guanine nucleotide …: MNPEEQIVTWLISLGVLESPKKTICDPEEFLKSSLKNGVVLCKLINRLMPGSVEKFCLDPQTEADCINNINDFLKGCATLQVEIFDPDDLYSGVNFSKVLSTLLAVNKATEDQLSERPCGRSSSLSAANTSQTNPQGAVSSTVSGLQRQSKTVEMTENGSHQLIVKARFNFKQTNEDELSVCKGDIIYVTRVEEGGWWEGTLNGRTGWFPSNYVREIKSSERPLSPKAVKGFETAPLTKNYYTVVLQNILDTEKEYAKELQSLLVTYLRPLQSNNNLSTVEVTSLLGNFEEVCTFQQTLCQALEECSKFPENQHKVGGCLLSLMPHFKSMYLAYCANHPSAVNVLTQHSDELEQFMENQGASSPGILILTTNLSKPFMRLEKYVTLLQELERHMEDTHPDHQDILKAIVAFKTLMGQCQDLRKRKQLELQILSEPIQAWEGEDIKNLGNVIFMSQVMVQYGACEEKEERYLMLFSNVLIMLSASPRMSGFIYQGKIPIAGTVVTRLDEIEGNDCTFEITGNTVERIVVHCNNNQDFQEWLEQLNRLIRGPASCSSLSKTSSSSCSAHSSFSSTGQPRGPLEPPQIIKPWSLSCLRPAPPLRPSAALGYKERMSYILKESSKSPKTMKKFLHKRKTERKPSEEEYVIRKSTAALEEDAQILKVIEAYCTSANFQQGHGSSTRKDSIPQVLLPEEEKLIIEETRSNGQTIMEEKSLVDTVYALKDEVRELKQENKRMKQCLEEELKSRRDLEKLVRRLLKQTDECIRGESSSKTSILP
HaCat cell extract preys; bait SCRIB_1 PDZ vs MBP, enrichment of prey
  Difference log2: 5.7166
HaCat cell extract preys; [8]
  Ratio SCRIB_1/MBP: 52.5856
[1]; bait SCRIB_1 PDZ vs MBP
  Difference log2: 4.28
[1]; [8]
  Ratio SCRIB_1/MBP: 19.4266
[1]; bait TX1BP3 PDZ vs MBP
  Difference log2: 7.045
[1]; bait TX1BP3 PDZ, fold change of prey
  Ratio TX1BP3 / MBP: 132.089

B3: UBA6 (protein, UniProt A0AVT1 1-1052, looked up)
Ubiquitin-like …: MEGSEPVAAHQGEEASCSSWGTGSTNKNLPIMSTASVEIDDALYSRQRYVLGDTAMQKMAKSHVFLSGMGGLGLEIAKNLVLAGIKAVTIHDTEKCQAWDLGTNFFLSEDDVVNKRNRAEAVLKHIAELNPYVHVTSSSVPFNETTDLSFLDKYQCVVLTEMKLPLQKKINDFCRSQCPPIKFISADVHGIWSRLFCDFGDEFEVLDTTGEEPKEIFISNITQANPGIVTCLENHPHKLETGQFLTFREINGMTGLNGSIQQITVISPFSFSIGDTTELEPYLHGGIAVQVKTPKTVFFESLERQLKHPKCLIVDFSNPEAPLEIHTAMLALDQFQEKYSRKPNVGCQQDSEELLKLATSISETLEEKPDVNADIVHWLSWTAQGFLSPLAAAVGGVASQEVLKAVTGKFSPLCQWLYLEAADIVESLGKPECEEFLPRGDRYDALRACIGDTLCQKLQNLNIFLVGCGAIGCEMLKNFALLGVGTSKEKGMITVTDPDLIEKSNLNRQFLFRPHHIQKPKSYTAADATLKINSQIKIDAHLNKVCPTTETIYNDEFYTKQDVIITALDNVEARRYVDSRCLANLRPLLDSGTMGTKGHTEVIVPHLTESYNSHRDPPEEEIPFCTLKSFPAAIEHTIQWARDKFESSFSHKPSLFNKFWQTYSSAEEVLQKIQSGHSLEGCFQVIKLLSRRPRNWSQCVELARLKFEKYFNHKALQLLHCFPLDIRLKDGSLFWQSPKRPPSPIKFDLNEPLHLSFLQNAAKLYATVYCIPFAEEDLSADALLNILSEVKIQEFKPSNKVVQTDETARKPDHVPISSEDERNAIFQLEKAILSNEATKSDLQMAVLSFEKDDDHNGHIDFITAASNLRAKMYSIEPADRFKTKRIAGKIIPAIATTTATVSGLVALEMIKVTGGYPFEAYKNCFLNLAIPIVVFTETTEVRKTKIRNGISFTIWDRWTVHGKEDFTLLDFINAVKEKYGIEPTMVVQGVKMLYVPVMPGHAKRLKLTMHKLVKPTTEKKYVDLTVSFAPDIDGDEDLPGPPVRYYFSHDTD
HEK293T cells
  Difference log2 E6/Ctrl: -0.8956
  Ratio E6/Ctrl: 0.5375
  Difference log2 dPBM/E6: 0.6111
  Ratio dPBM/E6: 1.527
  Difference log2 dPBM/Ctrl: -0.2845
  Ratio dPBM/Ctrl: 0.821

B4: ZW10 (protein, UniProt O43264 2-779, looked up)
Centromere/kinetochore …: ASFVTEVLAHSGRLEKEDLGTRISRLTRRVEEIKGEVCNMISKKYSEFLPSMQSAQGLITQVDKLSEDIDLLKSRIESEVRRDLHVSTGEFTDLKQQLERDSVVLSLLKQLQEFSTAIEEYNCALTEKKYVTGAQRLEEAQKCLKLLKSRKCFDLKILKSLSMELTIQKQNILYHLGEEWQKLIVWKFPPSKDTSSLESYLQTELHLYTEQSHKEEKTPMPPISSVLLAFSVLGELHSKLKSFGQMLLKYILRPLASCPSLHAVIESQPNIVIIRFESIMTNLEYPSPSEVFTKIRLVLEVLQKQLLDLPLDTDLENEKTSTVPLAEMLGDMIWEDLSECLIKNCLVYSIPTNSSKLQQYEEIIQSTEEFENALKEMRFLKGDTTDLLKYARNINSHFANKKCQDVIVAARNLMTSEIHNTVKIIPDSKINVPELPTPDEDNKLEVQKVSNTQYHEVMNLEPENTLDQHSFSLPTCRISESVKKLMELAYQTLLEATTSSDQCAVQLFYSVRNIFHLFHDVVPTYHKENLQKLPQLAAIHHNNCMYIAHHLLTLGHQFRLRLAPILCDGTATFVDLVPGFRRLGTECFLAQMRAQKGELLERLSSARNFSNMDDEENYSAASKAVRQVLHQLKRLGIVWQDVLPVNIYCKAMGTLLNTAISEVIGKITALEDISTEDGDRLYSLCKTVMDEGPQVFAPLSEESKNKKYQEEVPVYVPKWMPFKELMMMLQASLQEIGDRWADGKGPLAAAFSSSEVKALIRALFQNTERRAAALAKIK
HEK293T cells
  Difference log2 E6/Ctrl: 1.251
  Ratio E6/Ctrl: 2.38
  Difference log2 dPBM/E6: -3.211
  Ratio dPBM/E6: 0.108
  Difference log2 dPBM/Ctrl: -1.96
  Ratio dPBM/Ctrl: 0.2569

From PMC9482650, “Quantitative fragmentomics allow affinity mapping of interactomes” (Nature Communications, 2022)
